Measurements as given in patent US20160264649A1.

What was measured:
Test in all cases: cell-based or functional assay
[1] = molecular target: HIV-1 92RW008 Env (HIV-1)
[2] = molecular target: HIV-1 92TH021 Env (HIV-1)
[3] = molecular target: HIV-1 92UG031 Env (HIV-1)
[4] = molecular target: HIV-1 92UG037 Env (HIV-1)
[5] = molecular target: HIV-1 92WR009 Env (HIV-1)
[6] = molecular target: HIV-1 92WR020 Env (HIV-1)
[7] = molecular target: HIV-1 92WR021 Env (HIV-1)
[8] = molecular target: HIV-1 92WR024 Env (HIV-1)
[9] = molecular target: HIV-1 92WR026 Env (HIV-1)
[10] = molecular target: HIV-1 93UG077 Env (HIV-1)
[11] = molecular target: HIV-1 93WR029 Env (HIV-1)
[12] = molecular target: HIV-1 94KE105 Env (HIV-1)
[13] = molecular target: HIV-1 94UG103 Env (HIV-1)
HIV-1 CMU02 Env (HIV-1) = molecular target: HIV-1 CMU02 Env (HIV-1)
[14] = molecular target: HIV-1 Env of isolate MG RM-C-019 (subtype C) (HIV-1)
[15] = molecular target: HIV-1 Env of isolate MG RM-C-020 (subtype C) (HIV-1)
[16] = molecular target: HIV-1 Env of isolate MG RM-C-022 (subtype C) (HIV-1)
[17] = molecular target: HIV-1 Env of isolate MG RM-C-023 (subtype C) (HIV-1)
[18] = molecular target: HIV-1 Env of isolate MG RM-C-024 (subtype C) (HIV-1)
[19] = molecular target: HIV-1 Env of isolate MG RM-C-025 (subtype C) (HIV-1)
[20] = molecular target: HIV-1 Env of isolate MG RM-C-026 (subtype C) (HIV-1)
[21] = molecular target: HIV-1 Env of isolate MG RM-C-027 (subtype C) (HIV-1)
[22] = molecular target: HIV-1 Env of isolate MG RM-C-028 (subtype C) (HIV-1)
[23] = molecular target: HIV-1 MGRM-A-001 Env (HIV-1)
[24] = molecular target: HIV-1 MGRM-A-002 Env (HIV-1)
[25] = molecular target: HIV-1 MGRM-A-003 Env (HIV-1)
[26] = molecular target: HIV-1 MGRM-A-004 Env (HIV-1)
[27] = molecular target: HIV-1 MGRM-A-005 Env (HIV-1)
[28] = molecular target: HIV-1 MGRM-A-006 Env (HIV-1)
[29] = molecular target: HIV-1 MGRM-A-007 Env (HIV-1)
[30] = molecular target: HIV-1 MGRM-A-008 Env (HIV-1)
[31] = molecular target: HIV-1 MGRM-A-009 Env (HIV-1)
[32] = molecular target: HIV-1 MGRM-A-010 Env (HIV-1)
[33] = molecular target: HIV-1 MGRM-A-011 Env (HIV-1)
[34] = molecular target: HIV-1 MGRM-A-012 Env (HIV-1)
[35] = molecular target: HIV-1 MGRM-A-013 Env (HIV-1)
[36] = molecular target: HIV-1 MGRM-A-014 Env (HIV-1)
[37] = molecular target: HIV-1 MGRM-AE-001 Env (HIV-1)
[38] = molecular target: HIV-1 MGRM-AE-002 Env (HIV-1)
[39] = molecular target: HIV-1 MGRM-AE-003 Env (HIV-1)
[40] = molecular target: HIV-1 MGRM-AE-004 Env (HIV-1)
[41] = molecular target: HIV-1 MGRM-AE-005 Env (HIV-1)
[42] = molecular target: HIV-1 MGRM-AE-006 Env (HIV-1)
[43] = molecular target: HIV-1 MGRM-AE-007 Env (HIV-1)
[44] = molecular target: HIV-1 MGRM-AE-008 Env (HIV-1)
[45] = molecular target: HIV-1 MGRM-AG-001 Env (HIV-1)
[46] = molecular target: HIV-1 MGRM-AG-002 Env (HIV-1)
[47] = molecular target: HIV-1 MGRM-AG-003 Env (HIV-1)
[48] = molecular target: HIV-1 MGRM-AG-005 Env (HIV-1)
[49] = molecular target: HIV-1 MGRM-AG-006 Env (HIV-1)
[50] = molecular target: HIV-1 MGRM-AG-008 Env (HIV-1)
[51] = molecular target: HIV-1 MGRM-AG-009 Env (HIV-1)
[52] = molecular target: HIV-1 MGRM-AG-011 Env (HIV-1)
[53] = molecular target: HIV-1 MGRM-AG-012 Env (HIV-1)
[54] = molecular target: HIV-1 MGRM-AG-013 Env (HIV-1)
HIV-1 VLGCA1 Env (HIV-1) = molecular target: HIV-1 VLGCA1 Env (HIV-1)

Measured: IC50

5329_C19 (PGT-136) (antibody), sequence (VH): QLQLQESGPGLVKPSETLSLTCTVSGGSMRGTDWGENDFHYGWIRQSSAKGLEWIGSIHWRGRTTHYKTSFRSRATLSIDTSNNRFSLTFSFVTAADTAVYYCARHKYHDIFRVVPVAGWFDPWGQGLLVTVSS
5329_C19 (PGT-136) (antibody), sequence (VL): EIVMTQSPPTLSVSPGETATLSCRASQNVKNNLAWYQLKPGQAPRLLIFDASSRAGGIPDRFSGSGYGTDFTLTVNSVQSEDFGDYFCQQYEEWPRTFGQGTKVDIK

5147_N06 (PGT-130) (antibody)
34.3 µg/mL: [11]
0.009 µg/mL: [2] | [42] | [49]
0.061 µg/mL: [4]
0.041 µg/mL: [47]
0.083 µg/mL: [43]
0.039 µg/mL: [6]
0.308 µg/mL: [31]
0.005 µg/mL: [32]
1 µg/mL: [37]
21.4 µg/mL: [10]
0.151 µg/mL: [17]
9.46 µg/mL: [51]
0.037 µg/mL: [9]
0.127 µg/mL: [16]
1.27 µg/mL: [5]
2.43 µg/mL: [40]
1.53 µg/mL: [38]
0.337 µg/mL: [39]
0.008 µg/mL: [21]
0.004 µg/mL: [7] | [12]
0.006 µg/mL: [41]
1.4 µg/mL: [13]
0.01 µg/mL: [14] | [24] | [54]
0.036 µg/mL: [20]
0.089 µg/mL: [1]
0.54 µg/mL: [48]
0.161 µg/mL: [36]
> 50 µg/mL: all other assays above

5329_C19 (PGT-136) (antibody)
3.2 µg/mL: [17]
33.7 µg/mL: [22]
20.1 µg/mL: [14]
29.1 µg/mL: [49]
0.006 µg/mL: [20]
2.33 µg/mL: [6]
> 50 µg/mL: all other assays above
